Source: patent US20210122823A1 (EXCELMAB, published 2021)

Legend:
[1] = target: HER2 on tumor cell lines (SKBR-3, NCI-N87, MCF-7; 293F as HER2-negative control) (human, UniProt P04626 23-1255); experiment: cell-based or functional assay
human CD3 antigen = target: T1, human CD3 antigen (human, UniProt P07766 23-126); experiment: ELISA, CD3 antigen coated on plate, anti-human IgG-peroxidase detection
T1 construct: also called antigen CD3
T1 sequence (P07766 23-126): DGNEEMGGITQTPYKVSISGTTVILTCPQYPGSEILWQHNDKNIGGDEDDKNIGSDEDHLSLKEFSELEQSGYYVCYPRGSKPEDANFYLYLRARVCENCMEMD

B1: HER2-OB1×GXP2 bispecific antibody (bispecific antibody, human IgG1, kappa, L234A L235A)
heavy 1: not shown
heavy 2: EVQLVESGGGLVQPGGSLKLSCAASGFTFNTYAMNWVRQAPGKGLEWVARIRSKYNNYATYYADSVKDRFTISRDDSKNTAYLQMNNLKTEDTAMYYCVRHGNFGNSYVSWFAYWGQGTLVTVSSASTKGPSVFPLAPSSKSTSGGTAALGCLVKDYFPEPVTVSWNSGALTSGVHTFPAVLQSSGLYSLSSVVTVPSSSLGTQTYICNVNHKPSNTKVDKKVEPKSCDKTHTCPPCPAPEAAGGPSVFLFPPKPKDTLMISRTPEVTCVVVDVSHEDPEVKFNWYVDGVEVHNAKTKPREEQYNSTYRVVSVLTVLHQDWLNGKEYKCKVSNKALPAPIEKTISKAKGQPREPQVYTLPPSRDELTKNQVSLTCLVKGFYPSDIAVEWESNGQPENNYKTTKKKLDSDGSFFLYSKLTVDKSRWQQGNVFSCSVMHEALHNHYTQKSLSLSPGK
light: DIQMTQEPSLTTSPGGTVTLTCRSSTGAVTTSNYANWVQEKPGQAPRGLIGGTNKRAPGTPARFSGSLIGGKAALTITGVQPEDEAIYFCALWYSNLWVFGGGTKLEIKRTVAAPSVFIFPPSDEQLKSGTASVVCLLNNFYPREAKVQWKVDNALQSGNSQESVTEQDSKDSTYSLSSTLTLSKADYEKHKVYACEVTHQGLSSPVTKSFNRGEC
notes: also called HER2×GXP2; Her2×GXP2
**Q.** What does the source list for B1?
**A.** EC50 of PBMC-mediated killing of NCI-N87 cells (LDH release) [1]: 0.000395 µg/mL; EC50 of PBMC-mediated killing of SKBR-3 cells (LDH release), fold lower than Herceptin [1]: > 100 times lower than Herceptin; EC50 (human CD3 antigen): 1.4 µg/mL

B2: HER2-OB1×GXP bispecific antibody (bispecific antibody)
chain 1: not shown
chain 2: EVKLLESGGGLVQPKGSLKLSCAASGFTFNTYAMNWVRQAPGKGLEWVARIRSKYNNYATYYADSVKDRFTISRDDSQSILYLQMNNLKTEDTAMYYCVRHGNFGNSYVSWFAYWGQGTLVTVSSASTKGPSVFPLAPSSKSTSGGTAALGCLVKDYFPEPVTVSWNSGALTSGVHTFPAVLQSSGLYSLSSVVTVPSSSLGTQTYICNVNHKPSNTKVDKKVEPKSCDKTHTCPPCPAPEAAGGPSVFLFPPKPKDTLMISRTPEVTCVVVDVSHEDPEVKFNWYVDGVEVHNAKTKPREEQYNSTYRVVSVLTVLHQDWLNGKEYKCKVSNKALPAPIEKTISKAKGQPREPQVYTLPPSRDELTKNQVSLTCLVKGFYPSDIAVEWESNGQPENNYKTTKKKLDSDGSFFLYSKLTVDKSRWQQGNVFSCSVMHEALHNHYTQKSLSLSPGK
chain 3: QAVVTQESALTTSPGETVTLTCRSSTGAVTTSNYANWVQEKPDHLFTGLIGGTNKRAPGVPARFSGSLIGDKAALTITGAQTEDEAIYFCALWYSNLWVFGGGTKLVTMEIKRTVAAPSVFIFPPSDEQLKSGTASVVCLLNNFYPREAKVQWKVDNALQSGNSQESVTEQDSKDSTYSLSSTLTLSKADYEKHKVYTCEVTHQGLSSPVTKSFNRGEC
**Q.** Which EC50 (human CD3 antigen) does the source give for B2 here?
**A.** 3.15 µg/mL
